This passage reports Km, kcat and kcat/Km results from the PETadex activity labels (doi:10.1042/bj3320075).

Common to all, as to details: pH 7.1; 25 °C
Substrate in one data set: p-NP-C2
Substrate in another data set: p-NP-C3
Substrate in a further data set: p-NP-C4
Substrate in a further data set: p-NP-C5
Substrate in the next data set: p-NP-C6
Substrate in the next data set: p-NP-C8

B1: unnamed (protein)
chain: MKPENKLPVLDLISAEMKTVVNTLQPDLPPWPATGTIAEQRQYYTLERRFWNAGAPEMATRAYMVPTKYGQVETRLFCPQPDSPATLFYLHGGGFILGNLDTHDRIMRLLASYSQCTVIGIDYTLSPEARFPQAIEEIVAACCYFHQQAEDYQINMSRIGFAGDSAGAMLALASALWLRDKQIDCGKVAGVLLWYGLYGLRDSVTRRLLGGVWDGLTQQDLQMYEEAYLSNDADRESPYYCLFNNDLTREVPPCFIAGAEFDPLLDDSRLLYQTLAAHQQPCEFKLYPGTLHAFLHYSRMMKTADEALRDGAQFFTAQL
With B1, the Km (commonly the substrate concentration at which the rate is half of its maximum) with p-NP-C2 is 1500 µM; with p-NP-C3, 700 µM; with p-NP-C4, 500 µM; with p-NP-C5 it was 260 µM; with p-NP-C6, 220 µM; in the data set with p-NP-C8, 160 µM. Further, the turnover number (kcat) (in general, the maximal rate divided by the concentration of active sites) is 30.8 s⁻¹ in the data set with p-NP-C2; 30.9 s⁻¹ with p-NP-C3; 30.9 s⁻¹ in the data set with p-NP-C4; 20.5 s⁻¹ with p-NP-C5; 6.2 s⁻¹ in the data set with p-NP-C6; 0.21 s⁻¹ in the data set with p-NP-C8. The kcat/Km – broadly, the second-order rate constant that governs catalysis at low substrate concentration – in the data set with p-NP-C2 was 20500 M⁻¹ s⁻¹; in the data set with p-NP-C3 it was 44100 M⁻¹ s⁻¹; with p-NP-C4, 61800 M⁻¹ s⁻¹; in the data set with p-NP-C5 it was 78800 M⁻¹ s⁻¹; with p-NP-C6, 28200 M⁻¹ s⁻¹; with p-NP-C8, 1310 M⁻¹ s⁻¹.
